The source of these data is paper PMC8191759.

Targets include NSP8 M90A (SARS-CoV-2); NSP8 F92A (SARS-CoV-2); NSP8 M94A (SARS-CoV-2).
What all share (assay): cross-linking

In the case of NSP8 M90A (natural protein), in the assay with NSP8 M90A (SARS-CoV-2), the stoichiometry N (commonly a count of units in the complex or per binding partner) came out at 2.

Take NSP8 F92A (natural protein): in the assay with NSP8 F92A (SARS-CoV-2), the stoichiometry N turned out to be 2. Take NSP8 M94A (natural protein): in the assay with NSP8 M94A (SARS-CoV-2), the stoichiometry N was found to be 2.
